Assay results taken from article PMC6668441, “Comparative Study of Subcutaneous and Orthotopic Mouse Models of Prostate Cancer: Vascular Perfusion, Vasculature Density, Hypoxic Burden and BB2r-Targeting Efficacy” (Scientific Reports, 2019).

Assays:
[1] = Biodistribution, BB2r-targeted uptake, orthotopic PC-3 xenograft model; conditions: male, NOD SCID, mouse, iv, total radioactivity, orthotopic model, 10 µCi i.v., 1 h 5 min p.i., mean ± SD; for dose excreted at 65 min: urine and faeces, excretion (urine and fecal material)
Experimental: (§1) For the subcutaneous model, 5-week old female SCID mice were inoculated in the flanks with 5 × 10^6 PC-3 cells (American Type Culture Collection (ATCC), VA) in Matrigel®. The tumor size was monitored by caliper. For the generation of the orthotopic model, the PC-3-Luc cells were selected by 0.5 µg/mL puromycin twice before inoculation. The male 6-weeks SCID mice were anesthetized, the muscles of the abdomen area were cut after retracting the skin, and the prostate gland exposed. 50 μL of PC-3-Luc cell suspension at 0.5 × 10^6/mL in Matrigel® was injected into a dorsal prostatic lobe. The wound was closed in two layers and the skin was clipped. Animals were given analgesic drugs for 3 days and the tumors were monitored by an IVIS optical imaging system.
(§2) The mice were injected, monitored and dissected in the lab with the temperature of 23 °C and 17% relative humidity. All animals were awake until sacrifice. The body weight, tumor volume and tumor luminescence of the mice were recorded every three days. At four-to-seven weeks post-xenograft implantation, the mice were divided into three groups by tumor volume: <300, 300–700 and >700 mm^3 in both animal models. […] Each mouse (average weight: 20 g for female mice and 25 g for male mice) was treated with pimonidazole solution (80 mg/kg in PBS) via intraperitoneal injection. […] After an additional 1 h, the mice were injected intravenously with a PBS solution containing 10 µCi (370 kBq) of [^99mTc]NaTcO4 and 15 mg/kg Hoechst 33342. The animals were sacrificed 5 minutes later, and their tissues collected. The excised tissues were weighed, the radioactivity for each tissue was measured by γ-counter and the percentage injected dose per gram (%ID/g) was calculated for each tissue. […]
(§3) Establishment of Stably Transfected PC-3-Luc Cells
(§4) To generate the PC-3-Luc cells, we utilized pre-made lentivirus particles encoding luciferase and GFP (EF1a-Luciferase (firefly)-2A-GFP (Puro), AMSBIO) for transfection. Briefly, normal PC-3 cells were seeded in a 24-well plate using 0.5 mL of medium containing 0.5 × 10^5 cells/mL and incubated overnight. The medium was removed and replaced with 0.5 mL of fresh medium pre-mixed with 2.5 ȝL TransduxTM. To each well was added 2 ȝL of the lentivirus particle solution and swirled to mix. The plate was returned to the incubator and cultured for 3 days. Once the cells grew to confluence, they were harvested and transferred to larger plates (from 6-well plates to 60 mm dishes). 1.5 mL of suspended cells in PBS at a concentration of 5 × 10^6/mL was sorted by the FACS method to give the GFP positive (PC-3-Luc) cells that were returned to culture for in vitro and in vivo studies.
(§5) The normal PC-3 cells and PC-3-Luc were cultured in our laboratory, as per ATCC protocols, in Ham’s F-12K medium containing 10% FBS, 2.5 mM L-glutamine, 15 mM HEPES and 0.5 mM sodium pyruvate. Cells were incubated at 37 °C […]
(§6) All animal experiments were performed in accordance with the NIH animal use guideline and protocol approved by the […]

[2] = test system: orthotopic PC-3 xenografts; test: as above
Experimental: as §1, §2, §3, §4, §5, §6

For CSCC[C@H](NC(=O)[C@H](CC(C)C)NC(=O)[C@H](Cc1c[nH]cn1)NC(=O)CNC(=O)[C@@H](NC(=O)[C@H](C)NC(=O)[C@H](Cc1c[nH]c2ccccc12)NC(=O)[C@H](CCC(N)=O)NC(=O)CCOCCOCCOCCOCCNC(=O)[C@@H](CO)NC(=O)[C@@H](CO)NC(=O)[C@@H](CO)NC(=O)[C@@H](CO)NC(=O)[C@@H](CO)NC(=O)CN1CCN(CC(=O)O)CCN(CC(=O)O)CCN(CC(=O)O)CC1)C(C)C)C(N)=O [[^177Lu]Lu-DOTA-SP714, metal not drawn], the tissue uptake at 65 min ([1]; blood, 10 uCi, blood uptake, tumor volume >700 mm^3) was 0.57 ± 0.12 %ID/g, the tissue uptake at 65 min ([1]; bone, 10 uCi (370 kBq), bone uptake, tumor volume 300-700 mm^3) was 0.46 ± 0.22 %ID/g and the tissue uptake at 65 min ([1]; bone, 10 uCi (370 kBq), bone uptake, tumor volume <300 mm^3) was 0.29 ± 0.22 %ID/g. For the same compound, the tissue uptake at 65 min ([1]; bone, 10 uCi (370 kBq), bone uptake, tumor volume >700 mm^3) was 0.53 ± 0.24 %ID/g, the tissue uptake at 65 min ([1]; brain, 10 uCi (370 kBq), brain uptake, tumor volume 300-700 mm^3) was 0.06 ± 0.03 %ID/g and the tissue uptake at 65 min ([1]; brain, 10 uCi (370 kBq), brain uptake, tumor volume <300 mm^3) was 0.03 ± 0.01 %ID/g. For the same compound, the tissue uptake at 65 min ([1]; brain, 10 uCi (370 kBq), brain uptake, tumor volume >700 mm^3) was 0.06 ± 0.02 %ID/g, the tissue uptake at 65 min ([1]; heart, 10 uCi (370 kBq), heart uptake, tumor volume 300-700 mm^3) was 0.39 ± 0.49 %ID/g and the tissue uptake at 65 min ([1]; heart, 10 uCi (370 kBq), heart uptake, tumor volume <300 mm^3) was 0.13 ± 0.09 %ID/g. The tissue uptake at 65 min ([1]; heart, 10 uCi (370 kBq), heart uptake, tumor volume >700 mm^3) was 0.3 ± 0.17 %ID/g, the tissue uptake at 65 min ([1]; kidney, 10 uCi (370 kBq), kidney uptake, tumor volume 300-700 mm^3) was 4.8 ± 4.92 %ID/g and the tissue uptake at 65 min ([1]; kidney, 10 uCi (370 kBq), kidney uptake, tumor volume <300 mm^3) was 3.4 ± 0.92 %ID/g. For the same compound, the tissue uptake at 65 min ([1]; kidney, 10 uCi (370 kBq), kidney uptake, tumor volume >700 mm^3) was 5.98 ± 3.08 %ID/g, the tissue uptake at 65 min ([1]; large intestine, 10 uCi (370 kBq), large intestine uptake, tumor volume 300-700 mm^3) was 4.52 ± 1.31 %ID/g and the tissue uptake at 65 min ([1]; large intestine, 10 uCi (370 kBq), large intestine uptake, tumor volume <300 mm^3) was 2.06 ± 1.02 %ID/g. The tissue uptake at 65 min ([1]; large intestine, 10 uCi (370 kBq), large intestine uptake, tumor volume >700 mm^3) was 4.07 ± 1.91 %ID/g, the tissue uptake at 65 min ([1]; liver, 10 uCi (370 kBq), liver uptake, tumor volume 300-700 mm^3) was 0.4 ± 0.18 %ID/g and the tissue uptake at 65 min ([1]; liver, 10 uCi (370 kBq), liver uptake, tumor volume <300 mm^3) was 0.26 ± 0.07 %ID/g. It also gave a tissue uptake at 65 min ([1]; liver, 10 uCi (370 kBq), liver uptake, tumor volume >700 mm^3) of 0.52 ± 0.19 %ID/g, a tissue uptake at 65 min ([1]; lung, 10 uCi (370 kBq), lung uptake, tumor volume 300-700 mm^3) of 0.92 ± 0.41 %ID/g and a tissue uptake at 65 min ([1]; lung, 10 uCi (370 kBq), lung uptake, tumor volume <300 mm^3) of 0.82 ± 0.5 %ID/g. It also gave a tissue uptake at 65 min ([1]; lung, 10 uCi (370 kBq), lung uptake, tumor volume >700 mm^3) of 1.28 ± 0.47 %ID/g, a tissue uptake at 65 min ([1]; muscle, 10 uCi (370 kBq), muscle uptake, tumor volume 300-700 mm^3) of 0.22 ± 0.1 %ID/g and a tissue uptake at 65 min ([1]; muscle, 10 uCi (370 kBq), muscle uptake, tumor volume <300 mm^3) of 0.23 ± 0.12 %ID/g. It also gave a tissue uptake at 65 min ([1]; muscle, 10 uCi (370 kBq), muscle uptake, tumor volume >700 mm^3) of 0.48 ± 0.34 %ID/g, a tissue uptake at 65 min ([1]; pancreas, 10 uCi (370 kBq), pancreas uptake, tumor volume 300-700 mm^3) of 40.1 ± 11.5 %ID/g and a tissue uptake at 65 min ([1]; pancreas, 10 uCi (370 kBq), pancreas uptake, tumor volume <300 mm^3) of 30 ± 12.5 %ID/g. For the same compound, the tissue uptake at 65 min ([1]; pancreas, 10 uCi (370 kBq), pancreas uptake, tumor volume >700 mm^3) was 37.2 ± 7.29 %ID/g, the tissue uptake at 65 min ([1]; small intestine, 10 uCi (370 kBq), small intestine uptake, tumor volume 300-700 mm^3) was 3.74 ± 1.15 %ID/g and the tissue uptake at 65 min ([1]; small intestine, 10 uCi (370 kBq), small intestine uptake, tumor volume <300 mm^3) was 2.97 ± 0.66 %ID/g. For the same compound, the tissue uptake at 65 min ([1]; small intestine, 10 uCi (370 kBq), small intestine uptake, tumor volume >700 mm^3) was 3.8 ± 1.46 %ID/g, the tissue uptake at 65 min ([1]; spleen, 10 uCi (370 kBq), spleen uptake, tumor volume 300-700 mm^3) was 2.02 ± 3.14 %ID/g and the tissue uptake at 65 min ([1]; spleen, 10 uCi (370 kBq), spleen uptake, tumor volume <300 mm^3) was 1.77 ± 1.19 %ID/g. For the same compound, the tissue uptake at 65 min ([1]; spleen, 10 uCi (370 kBq), spleen uptake, tumor volume >700 mm^3) was 2.91 ± 4.89 %ID/g, the tissue uptake at 65 min ([1]; stomach, 10 uCi (370 kBq), stomach uptake, tumor volume 300-700 mm^3) was 1.59 ± 0.9 %ID/g and the tissue uptake at 65 min ([1]; stomach, 10 uCi (370 kBq), stomach uptake, tumor volume <300 mm^3) was 1.07 ± 0.53 %ID/g. The tissue uptake at 65 min ([1]; stomach, 10 uCi (370 kBq), stomach uptake, tumor volume >700 mm^3) was 1.46 ± 0.62 %ID/g, the tissue uptake at 65 min ([1]; tumor, 10 uCi, tumor uptake, tumor volume 300-700 mm^3) was 8.55 ± 2.65 %ID/g and the tissue uptake at 65 min ([1]; tumor, 10 uCi, tumor uptake, tumor volume <300 mm^3) was 8.07 ± 3.23 %ID/g. For the same compound, the tissue uptake at 65 min ([1]; tumor, 10 uCi, tumor uptake, tumor volume >700 mm^3) was 11.1 ± 2.88 %ID/g, the dose excreted at 65 min ([1]; 10 uCi, tumor volume 300-700 mm^3) was 67.2 ± 8.53% and the dose excreted at 65 min ([1]; 10 uCi, tumor volume <300 mm^3) was 60.8 ± 29.3%. For the same compound, the dose excreted at 65 min ([1]; 10 uCi, tumor volume >700 mm^3) was 60.2 ± 10.8%, the “blood retention values between the two models” value ([2]; orthotopic versus subcutaneous) was “not statistically different” and the “average tumor uptake, orthotopic versus subcutaneous model” value ([2]; tumor volume 300–700 mm^3, p = 0.011) was 1.6 fold. The “average tumor uptake, orthotopic versus subcutaneous model” value ([2]; tumor volume <300 mm^3, p = 0.0055) was 1.9 fold and the “average tumor uptake, orthotopic versus subcutaneous model” value ([2]; tumor volume >700 mm^3, p = 0.34) was 1.2 fold.
